Data as given in patent US9700619B2, “Combination drug therapy for the treatment of solid tumors” (Duke University, priority 2011, dated 2017).

Legend:
skin = assay: Dermapathology evaluation of cutaneous biopsies from study subjects; assay type: in vivo, human
Source text: Dose escalation was complete with 17 subjects evaluable for DLT toxicity and 16 evaluable for efficacy (see Table 2). […] One non-treatment-related death was due to disease progression. […] Twelve subjects have available efficacy data; 4 subjects have not yet been restaged. Two subjects with refractory NSCLC achieved a complete response. Six additional subjects had stable disease as best response.

[1] = system: patients with advanced solid tumors; assay: Phase I study of ganitumab plus everolimus: DLT, MTD/RPTD and adverse events (NCI Common Toxicity Criteria version 4.0); assay type: in vivo; conditions: subjects on G+E, summary
Protocol: The maximum tolerated doses/recommended phase II dose for the doublet combination, ganitumab (G) plus everolimus (E) followed by an expanded cohort was evaluated to better understand the safety and tolerability profile of this drug combination.
The primary objective of this study was to determine the maximum tolerated dose (MTD) and Recommended Phase II Dose (RPTD) of G+E in patients with advanced solid tumors. Secondary objectives were to describe any toxicities associated with this regimen and to preliminarily describe clinical activity (progression-free survival (PFS)), overall survival (OS), partial response (PR), complete response (CR) or stable disease (SD)>6 months.
For dose escalation, eligible patients had advanced solid tumors with adequate organ function and no increased risk for class-related toxicities. G was given intravenously, and E was orally administered; cycle length was 28 days. Stage I was a dose escalation; cohort size: 3-6 patients; Stage II was an expansion at MTD with a cohort size of 20 patients.
An intermediate dose of E at 5 mg five times weekly was added to better maximize dose intensity. Dose limiting toxicity (DLT) was assessed in cycle 1.
AEs were graded according to the NCI Common Toxicity Criteria version 4.0. Efficacy was assessed every 2 cycles with computed tomography (CT) using Response Evaluation Criteria in Solid Tumors (RECIST 1.1) guidelines.

Substance: ganitumab
- Finding in the third cutaneous biopsy (skin; interpreted as part of the skin toxicity to G): spongiotic dermatitis with mixed inflammatory infiltrate with abundant eosinophils
- Cutaneous biopsies revealing hypersensitivity reaction in the form of superficial perivascular dermatitis (skin; mild perivascular lymphocytic infiltrate with eosinophils, subjects on G+E): 2 out of 3
- Skin toxicities [1]: consistent with hypersensitivity to Ganitumab
